The results in this text go back to US20240317838A1, “LACTOFERRIN COMPOSITIONS AND METHODS OF USE” (LACTEA THERAPEUTICS LLC, priority 2021, published 2024).

Data set [1] concerns Salivary bacteria (including Lactobacillus, Lactococcus, and Streptococcus mutans). The experiment in a line: Salivary bacteria acid production by pH testing. The format is cell-based. The conditions noted are these: in the presence of sucrose. How it is done:
Salivary bacteria (including Lactobacillus, Lactococcus, and Streptococcus mutans) produce acid during growth. This acidification is strongly associated with tooth decay, particularly when it results in pH below 5.5, which is a clinically relevant threshold. A slurry of these bacteria were treated with sucrose to stimulate growth, as well as varying concentrations of API-E2 lactoferrin. Upon the addition of sucrose and API-E2 lactoferrin, the pH was adjusted to 7 through a titration and the change in pH was subsequently monitored over the next 6 hours.

A further data set has as its system ECM of the buccal cells. The data set is described as follows: ECM binding by immunofluorescence imaging in primary buccal cells. The conditions noted are these: 100 μg/mL, 1 hr at 37 C. Type of data set: cell-based. As to the method: Primary buccal cells were next cultured according to a standard protocol (e.g., see Russo et al. Cytotechnology. 2016 October; 68(5): 2105-2114; herein incorporated by reference for all purposes). […] Immunofluorescence imaging was performed as previously described.

Data set [2] in a line: DSC iron binding capability with 1000× molar excess FeCl3. The format is physicochemical. The settings on record: FeCl3 in 1000× molar excess. As to the method: The DSC assay was further used to assess Lactoferrin bioactivity, specifically the iron binding capability of the API-E2 Lactoferrin. Iron chloride (FeCl3) was added in 1000× molar excess to API-E2 Lactoferrin. In the presence of excess iron, the API-E2 lactoferrin will bind the iron to its open iron binding site.

A short description of data set [3]: Differential Scanning calorimetry (DSC) of lactoferrin samples. The format is physicochemical. As to the method:
Di[…] calorimetry (DSC) was used to assess the hololactoferrin and apolactoferrin forms through monitoring unfolding temperatures of lactoferrin samples using a nanoDSC (TA Instruments, Lindon, UT) according to standard DSC protocols known to those of skill in the art (e.g., see Hinz et al “M[…] OF RESULTS OBTAINED ON […] DI[…] CALORIMETRY”; herein incorporated by reference for all purposes.
API-E2 Lactoferrin (10 mg/mL), produced as described herein, was assessed by DSC. […] The lack of other peaks indicates the lack of contaminants and impurities and can assess API-E2 as ˜100%. […] Additionally, the lack of other peaks also indicated the purity of API-E2 Lactoferrin. […] The API-E2 hololactoferrin peak has a Tm of 88.38+/−0.8 C and a delta H of 632.7+/−7.2 kJ/mol. The hololactoferrin natively accounted for on average 8.74+/−1.39% of the total API-E2 lactoferrin with apolactoferrin accounting for the rest in the samples tested. However, the hololactoferrin percentage can be naturally variable. The API-E2 was calculated by this technique to contain virtually 100% pure lactoferrin.
The assay was also performed with heat-treated API-E2 Lactoferrin. API-E2 Lactoferrin was heated across a range of 50-100° C.

The test system of another data set is lactoperoxidase (LPO). The data set is described as follows: Enzymatic assay for lactoperoxidase (LPO) activity. The conditions noted are these: colorimetric, turns blue in the presence of peroxidase activity. Type of data set: biochemical. The source says: An enzymatic assay for lactoperoxidase (LPO) activity was developed utilizing a molecule which in the presence of peroxidase activity turns a blue color.

Where a chain is given by its changes, count along the chain named.

B1: API-E2: bovine lactoferrin purified from raw, untreated milk by cation exchange chromatography and filtration according to Example 1 (protein)
chain: APRKNVRWCTISQPEWFKCRRWQWRMKKLGAPSITCVRRAFALECIRAIAEKKADAVTLDGGMVFEAGRDPYKLRPVAAEIYGTKESPQTHYYAVAVVKKGSNFQLDQLQGRKSCHTGLGRSAGWVIPMGILRPYLSWTESLEPLQGAVAKFFSASCVPCIDRQAYPNLCQLCKGEGENQCACSSREPYFGYSGAFKCLQDGAGDVAFVKETTVFENLPEKADRDQYELLCLNNSRAPVDAFKECHLAQVPSHAVVARSVDGKEDLIWKLLSKAQEKFGKNKSRSFQLFGSPPGQRDLLFKDSALGFLRIPSKVDSALYLGSRYLTTLKNLRETAEEVKARYTRVVWCAVGPEEQKKCQQWSQQSGQNVTCATASTTDDCIVLVLKGEADALNLDGGYIYTAGKCGLVPVLAENRKTSKYSSLDCVLRPTEGYLAVAVVKKANEGLTWNSLKDKKSCHTAVDRTAGWNIPMGLIVNQTGSCAFDEFFSQSCAPGRDPKSRLCALCAGDDQGLDKCVPNSKEKYYGYTGAFRCLAEDVGDVAFVKNDTVWENTNGESTADWAKNLNREDFRLLCLDGTRKPVTEAQSCHLAVAPNHAVVSRSDRAAHVKQVLLHQQALFGKNGKNCPDKFCLFKSETKNLLFNDNTECLAKLGGRPTYEEYLGTEYVTAIANLKKCSTSPLLEACAFLTR
Consider B1, for which the “pH maintained for the entire 6 hour testing period” value in data set [1] (1 mg/mL) and in data set [1] (10 mg/mL) was “above 5.5” throughout. Further, the “ECM association of Lactoferrin” value with ECM of the buccal cells is “strong binding along the ECM”. For the same molecule, the “available Apolactoferrin shifted to the Hololactoferrin form upon addition of excess iron” value in data set [2] was determined as 100%. In addition, the “% of Total, apolactoferrin” value in data set [3] (native, no added iron) is listed as 91.26 +/− 1.39% ^. Besides, the “LPO enzymatic activity of the sample” value in the data set on lactoperoxidase (LPO) is given as “neither detected by M/S or by the enzymatic assay”.

B2: Lab-grade standard lactoferrin: commercially available Sigma lab-grade standard lactoferrin (L9507) (protein, UniProt P24627 20-708, looked up)
Lactotransferrin: B1 chain with V126I, T417S, Y420H, R495A
Turning to B2, the “ECM association of Lactoferrin” value with ECM of the buccal cells was “only limited ECM association”. Besides, in data set [3] (conditions as for API-E2), the “DSC peaks observed (apolactoferrin and hololactoferrin)” value is “significantly smaller than those observed for API-E2 and less defined”; the “apolactoferrin peak denaturation temperature” value is 55 °C; the “hololactoferrin peak denaturation temperature” value was found to be 85 °C. Also, in the data set on lactoperoxidase (LPO), the “LPO enzymatic activity of the sample” value is on record as “does not result in a positive enzymatic reaction”.

B3: heat-treated API-E2 Lactoferrin: API-E2 Lactoferrin heated across a range of 50-100° C. (protein, UniProt P24627 20-708, looked up)
Lactotransferrin: B1 chain with V126I, T417S, Y420H, R495A
modifications: heat-treated
With B3, the “DSC peaks observed (apolactoferrin and hololactoferrin)” value in data set [3] (conditions as for API-E2) is given as “loss in both detectable peaks”.
